Experimental findings from patent publication US12649783B2, “Anti-MCT1 antibodies and uses thereof” (IMMUNEXT INC., priority 2018, dated 2026) are described below.

Assay [1] has as its system allogeneic activation / T cell proliferation. Briefly: human mixed lymphocyte reaction (MLR). The assay is classed as cell-based. An excerpt:
Human mixed lymphocyte reaction (MLR).
Inhibition of T cell proliferation, inflammatory cytokine production, and allogeneic activation. […] An anti-MCT1 antibody or antibody fragment of the invention may also be tested for its ability to inhibit the production of inflammatory cytokines, relative to controls, in stimulated T cells on day 3 post-stimulation. MCT1 Ab1As with CD3/CD28 activation, MCT1 Ab1 inhibited allogeneic activation by 50-60% in a human mixed lymphocyte reaction (see, e.g., FIG. 17).

Another assay deals with T1, rat MCT1 (Rattus norvegicus, UniProt P53987).
T1 construct: endogenous in cells; host or cells: rat PBMCs
T1 sequence (P53987 1-494): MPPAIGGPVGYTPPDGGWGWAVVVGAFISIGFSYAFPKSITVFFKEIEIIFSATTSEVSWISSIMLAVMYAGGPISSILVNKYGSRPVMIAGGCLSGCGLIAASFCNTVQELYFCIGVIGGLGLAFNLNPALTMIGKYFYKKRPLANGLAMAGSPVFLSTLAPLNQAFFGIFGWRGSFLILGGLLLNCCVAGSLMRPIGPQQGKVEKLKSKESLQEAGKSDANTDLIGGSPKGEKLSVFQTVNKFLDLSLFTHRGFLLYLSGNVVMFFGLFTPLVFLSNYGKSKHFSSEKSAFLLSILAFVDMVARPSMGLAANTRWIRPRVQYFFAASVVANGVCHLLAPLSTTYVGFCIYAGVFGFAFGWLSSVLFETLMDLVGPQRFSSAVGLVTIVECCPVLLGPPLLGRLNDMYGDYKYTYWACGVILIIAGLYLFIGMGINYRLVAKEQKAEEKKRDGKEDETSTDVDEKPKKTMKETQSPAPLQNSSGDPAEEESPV
Briefly: flow cytometry binding to PBMCs, rat. An excerpt:
(§1) FIG. 12A-D show the cross-reactivity of MCT1 Ab1 as assessed via flow cytometry measurements of binding to MCT1 on the surface of different species' PBMCs.
(§2) Binding affinity and MCT1 cross-reactivity. […] MCT1 Ab1 is also highly cross-reactive with cynomolgus (cyno) and rabbit MCT1, but not with rodent MCT1 (FIG. 12A-D).

Another assay has as its system rabbit MCT1. Briefly: flow cytometry binding to PBMCs, rabbit.
Source text: as §1, §2
On the technique in general: Flow cytometry measures light scatter and fluorescence of single cells or particles in a stream.

The target in another assay is T2, MCT1 on T cells (Homo sapiens, UniProt P53985).
T2 construct: endogenous in cells
T2 sequence (P53985 1-500): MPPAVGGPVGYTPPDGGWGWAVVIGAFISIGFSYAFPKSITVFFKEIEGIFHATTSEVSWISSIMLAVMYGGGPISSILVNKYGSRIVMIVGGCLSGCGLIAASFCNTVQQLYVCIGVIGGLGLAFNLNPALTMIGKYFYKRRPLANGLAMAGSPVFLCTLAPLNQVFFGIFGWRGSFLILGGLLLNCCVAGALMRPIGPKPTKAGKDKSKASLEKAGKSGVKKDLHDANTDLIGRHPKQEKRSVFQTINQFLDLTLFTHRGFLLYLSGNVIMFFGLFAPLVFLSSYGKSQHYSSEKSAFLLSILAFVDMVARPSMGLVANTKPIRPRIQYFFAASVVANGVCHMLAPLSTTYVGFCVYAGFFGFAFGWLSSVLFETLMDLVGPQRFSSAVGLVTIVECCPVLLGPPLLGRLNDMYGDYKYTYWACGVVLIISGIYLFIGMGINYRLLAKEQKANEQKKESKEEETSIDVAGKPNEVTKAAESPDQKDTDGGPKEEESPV
Briefly: staining of naive and activated T cells. The assay is classed as binding. An excerpt: The only staining in FIG. 13A corresponds to nucleus staining, confirming the presence of the naïve T cells.
MCT1 Ab1 binding to activated T cells. […] This binding confirms the expression data presented in FIG. 2 and confirms the prediction based on mRNA analysis.

A further assay has as its system CD4+ and CD8+ T cells. Briefly: proliferation of CD4+ and CD8+ T cells. The assay is classed as cell-based. The conditions noted are these: different antibody concentrations.
The target in assay [2] is T3, MCT1 on the surface of human PBMCs (Homo sapiens, UniProt P53985).
T3 construct: endogenous in cells; host or cells: human PBMCs (unstimulated and stimulated)
T3 sequence (P53985 1-500): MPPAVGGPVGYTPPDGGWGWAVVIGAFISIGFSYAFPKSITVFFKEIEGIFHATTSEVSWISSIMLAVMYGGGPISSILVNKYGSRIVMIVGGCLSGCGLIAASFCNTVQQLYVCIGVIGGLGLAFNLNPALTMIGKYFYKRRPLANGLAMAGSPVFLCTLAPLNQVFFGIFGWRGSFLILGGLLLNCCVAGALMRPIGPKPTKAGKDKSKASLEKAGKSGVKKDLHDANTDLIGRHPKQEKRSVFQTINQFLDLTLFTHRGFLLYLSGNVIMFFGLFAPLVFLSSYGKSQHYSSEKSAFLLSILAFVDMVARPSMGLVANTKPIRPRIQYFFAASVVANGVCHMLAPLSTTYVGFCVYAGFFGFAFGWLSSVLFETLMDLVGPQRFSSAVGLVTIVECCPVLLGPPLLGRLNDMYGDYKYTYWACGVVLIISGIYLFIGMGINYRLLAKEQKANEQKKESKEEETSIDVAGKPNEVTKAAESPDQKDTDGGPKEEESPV
Briefly: flow cytometry binding to PBMCs, human.
Source text: as §1, §2

B1: MCT1 Ab1: rat anti-human MCT1 monoclonal antibody (rat/human chimera); VH/VL SEQ ID NO: 2/3 (antibody, V domains shown)
VH: QVQLKATGPGLVQPTQTLSITCTVSGFSLTNYHLQWVRQTPGKGLEWMGFIRSSGNTEYNSEFKSRLSISRDTSKNQVFLKMNSLKTDDTGVYYCARNSWYHGTYYSPGYYVMDAWGQGASVTVSS
VL: NIHLTQSPSLLSASVGDRVTLSCKGSQNINNYLAWFQQKFGETPKLLIYNRHNLQTGIPSRFSGSGSGTDYTLTINSLQPEDVATYFCYQYSDGYTFGAGTKLELK
modifications: MCT1 Ab1 (INX310) VH; MCT1 Ab1 (INX310) VL
With B1, in assay [1], the “inhibition of allogeneic activation” value was 50-60%. The “binding to MCT1 on PBMCs” value was “does not bind to rat MCT1” with rat MCT1, “binds to rabbit MCT1” in the assay on rabbit MCT1 and “binds to MCT1 on the surface of human PBMCs” in assay [2]. Besides, the “staining of activated T cells” value in the assay with MCT1 on T cells (CD3/CD28 activated cells, day 3) is “stains the surface of CD3/CD28 activated cells on day 3”. Besides, the “staining of naive T cells” value in the assay with MCT1 on T cells (naïve cells) was “does not stain naïve cells”. Besides, the “proliferation of CD4+ and CD8+ T cells” value with CD4+ and CD8+ T cells is “inhibited the proliferation of CD4^+ and CD8^+ T cells”.
